Experimental data taken from PMC12217166, “Conformational dynamics and membrane insertion mechanism of B4GALNT1 in ganglioside synthesis” (Nature Communications, 2025).

Tests used:
[1] = molecular target: His10-ΔN46-B4GALNT1 (human B4GALNT1 lumenal domain construct ΔN46) (human) (UniProt Q00973); assay: non-reducing SDS-PAGE; purified protein in SDS loading dye without or with 50 mM DTT, heated 5 min at 95 °C, NuPAGE 4-12% Bis-Tris gel, Coomassie stain; dimer seen without reducing agent
[2] = molecular target: the molecule itself; assay: as above

Row | Molecule | stoichiometry N [1] | stoichiometry N [2]
1 | His10-ΔN46-B4GALNT1 (human B4GALNT1 lumenal domain construct ΔN46) (from UniProt Q00973 47-533) (domain or fragment) | 2 | 
2 | B4GALNT1 lumenal domain construct ΔN27 (entire lumenal domain, human) (domain or fragment, N-linked glycosylation (3 predicted sites, positions not given)) HHHHHHHHHHGTRDAPGLRLPLAPWAPPQSPRRPELPDLAPEPRYAHIPVRIKEQVVGLLAWNNCSCESSGGGLPLPFQKQVRAIDLTKAFDPAELRAASATREQEFQAFLSRSQSPADQLLIAPANSPLQYPLQGVEVQPLRSILVPGLSLQAASGQEVYQVNLTASLGTWDVAGEVTGVTLTGEGQADLTLVSPGLDQLNRQLQLVTYSSRSYQTNTADTVRFSTEGHEAAFTIRIRHPPNPRLYPPGSLPQGAQYNISALVTIATKTFLRYDRLRALITSIRRFYPTVTVVIADDSDKPERVSGPYVEHYLMPFGKGWFAGRNLAVSQVTTKYVLWVDDDFVFTARTRLERLVDVLERTPLDLVGGAVREISGFATTYRQLLSVEPGAPGLGNCLRQRRGFHHELVGFPGCVVTDGVVNFFLARTDKVREVGFDPRLSRVAHLEFFLDGLGSLRVGSCSDVVVDHASKLKLPWTSRDAGAETYARYRYPGSLDESQMAKHRLLFFKHRLQCMTSQ |  | 2
